Experimental data published in publication PMC3744072.

Target: matrilin-3 (wild type, mouse) (mouse (endogenous in mouse cartilage and chondrocytes)) (UniProt O35701)
Experiment: non-reducing SDS-PAGE and Western blot; total protein lysates of isolated chondrocytes of 5-day-old mice, 4-12% gels, non-reduced against reduced (0.1 M DTT); oligomers assigned by apparent size

matrilin-3 (wild type, mouse), sequence (O35701 28-481): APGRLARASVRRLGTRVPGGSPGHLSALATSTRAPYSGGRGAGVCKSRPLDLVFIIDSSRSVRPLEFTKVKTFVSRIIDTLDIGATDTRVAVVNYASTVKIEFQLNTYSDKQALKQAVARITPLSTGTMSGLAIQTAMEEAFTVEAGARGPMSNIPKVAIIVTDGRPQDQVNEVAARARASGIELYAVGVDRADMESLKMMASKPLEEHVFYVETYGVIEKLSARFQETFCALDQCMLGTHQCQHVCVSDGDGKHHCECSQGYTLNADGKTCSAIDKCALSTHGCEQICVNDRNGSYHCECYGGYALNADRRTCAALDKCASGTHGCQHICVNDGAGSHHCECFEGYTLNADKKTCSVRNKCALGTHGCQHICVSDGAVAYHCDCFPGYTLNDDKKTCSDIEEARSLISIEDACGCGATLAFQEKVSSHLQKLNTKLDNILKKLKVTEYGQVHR

Substance: matrilin-3 (wild type, mouse) (from UniProt O35701 28-481) (natural protein)
- stoichiometry N: 4
